For test [1], the target named is Mus musculus calmodulin (mCaM), recombinant (Mus musculus, UniProt P0DP27 1-149). Briefly: crystal structure.
Test [2] concerns the target Drosophila melanogaster calmodulin (dCaM), recombinant (Drosophila melanogaster, UniProt P62152 1-149). Briefly: ITC. On the technique in general: In ITC the heat of successive injections is recorded.

Data on two molecules can be found in paper PMC11962071 (Nature Communications, 2025).

With AAALIQRWYRRYMARLEM [mPPEF2 IQ (aa 22-39)], the binding result in test [1] is on record as “binds”.
On to MDENAIRAAIFEQKWYRRHQARREM (domain or fragment) [RDGC IQ (aa 1-25) I12E], for which, in test [2], the “fold decrease in affinity against the wild type” value worked out at 236 fold.
